Consider 41 sequences from the nanobody polyreactivity screen of Harvey et al. (2022).

This data set is described as follows: yeast display, Sf9 membrane polyspecificity reagent, FACS + sequencing; frameworks hold sequencing errors. The procedure, abridged: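 Using colony PCR, genes from sorted yeast display clones were amplified, then sequenced on MiSeq at 2 × 250 and filtered by CDR length. The clones had been stained with 10% biotinylated, detergent-solubilized Sf9 membrane reagent for 1 hour at 4 °C and sorted by FACS into low and high (top ~1%) gates on anti-HA and streptavidin fluorescence. Polyreactivity labels come from the gate of origin.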
Regarding “QGQLVESGGGLVQAGGSLRLSCAACGSIFTYYTMGWYRQAPGKERELVAAIRWSAGRTYYADSVKGRFTISRDNAKNTVYLQMNSMKPEDTAVYYCAAAERLRHGLKFDYWGQGTQVTLSS”, the “polyreactivity (PSR sort gate)” value is “high polyreactivity”.

For “QGQLVESGGGLVQAGGSLRLSCAASGFIFDNNAMGWYRQAPGKERELVAAISFSAGSTYYADSVKGRFTISRDNAKNTVYLQMNSLNPEDTAVYYCNADDWWGGYDYWGQGTQVTVSS”, the “polyreactivity (PSR sort gate)” value is listed as “low polyreactivity”.

Regarding “QGQLVESGGGLVQAGGSLRLSCAASGFIFVPYAMGWYRQAPGKEREFVAAITASGGNTYYADSVKGRFTISRDNAKNTVYLQMNSLKPEYTAVYYCAAEISGSLESLDYWGQGTQVTVSS”, the “polyreactivity (PSR sort gate)” value is “low polyreactivity”.

In the case of “QGQLVESGGGLVQAGGSLRLSCAASGFSFLRYAMGWYRQAPGKERELVAAISTSGGSTSYADSVKGRFTISRDNAKNTVSLQKNSLKQEDTAVYYCNAVLYKVSISEYDYWGQGTQVTVSS”, the “polyreactivity (PSR sort gate)” value is recorded as “high polyreactivity”.

Take “QGQLVESGGGLVQAGGSLRLSCAASGFTFVGNAMGWYRQAPGKERELVATITSGGNTKYADSVKGRFTISRDNAKYTVYLQKNSLKPEDTAVYYCAAAKYNYRRFNYWGQGTQVTVSS”: the “polyreactivity (PSR sort gate)” value is “low polyreactivity”.

In the case of “QGQLVESGGGLVQAGGSLRLSCAASGFTISSYAMGWYRQATGKEREMVAAISSSGSRTSYADSVKVRFTISRDIAKNSVYFQMNSLKPEDTAVYYCAARPGDGGYYYWGQGTQVTVSS”, the “polyreactivity (PSR sort gate)” value is reported as “high polyreactivity”.

As for “QGQLVESGGGLVQAGGSLRLSCAASGFTSSRNAMGWYIQEAGKERELVATISSGGDTYYADSVKGRFTISRDNAKNTVYLQMNSLKPEDTAVYYCNKDPLYAWGYDYWGQGTQVTVSS”, the “polyreactivity (PSR sort gate)” value is reported as “low polyreactivity”.

Take “QGQLVESGGGLVQAGGSLRLSCAASGIIFEYYDMGWYRQAPGKERELVAAIDSGGSTYYADSVKGRFTISRDNAKNTVYLQMNSLKPEDTAVYYCAASRPPNTSNTGYGSWGQGTQVTVSS”: the “polyreactivity (PSR sort gate)” value is given as “low polyreactivity”.

For “QGQLVESGGGLVQAGGSLRLSCAASGRIFGHYAMGWYRQAPGKERELVAAIRWRGGSTYYADSVKGRFTISRDNAKNTVYLQMNSLKPEDTAVYYCARTNNGRFRIVDTRYDYWGQGNQVTVSS”, the “polyreactivity (PSR sort gate)” value is recorded as “low polyreactivity”.

On to “QGQLVESGGGLVQAGGSLRLSCAASGRIFPGNVMGWYRPAPGKERELVAAISSSGGSTYYADSVKGRFTISRDNAKNTVYLQMNSLKPEDTAVYYCAADSSDWPYDYWGQGTQVTVSS”, for which the “polyreactivity (PSR sort gate)” value is “low polyreactivity”.

As to “QGQLVESGGGLVQAGGSLRLSCAASGRIFRGYAMGWYRQGPGNEREWVAAFSRRGGSTYYADSVKGRFTISRDNAKNTVYLQMNSLKPVDTAVYYCNADGVHYVAYAGGYWGQGTQVTVSS”, the “polyreactivity (PSR sort gate)” value is given as “high polyreactivity”.

As to “QGQLVESGGGLVQAGGSLRLSCAASGRTFNYYAMGWYREAPGKEWELGAAITNRGGSTYYADSVKGRFTISRDNAKNTVYLQMNSLKPEDTAVYYSAARGKYPSASGYTYSYGYWGQGTQVTVSS”, the “polyreactivity (PSR sort gate)” value is “high polyreactivity”.

As for “QGQLVESGGGLVQAGGSLRLSCAASGRTFTAYAMGWYRQAPRKERELVASISSGSSTYYADSVKGRFTISRDNAKYTVYLQMNSLKPEDTAVYYCAARDGYRYYKGKRMGYWGQGTQVTVSS”, the “polyreactivity (PSR sort gate)” value is “high polyreactivity”.

As to “QGQLVESGGGLVQAGGSLRLSCAASGRTFVDYDMGWYRQAAGKERELVADINSGGSTYYADSVKGRFTISRDNAKNTVYLQMNSLKREDSAVYYCAADDGWGYISSYDYEYWGQGTQVTVSS”, the “polyreactivity (PSR sort gate)” value is listed as “high polyreactivity”.

For “QGQLVESGGGLVQAGGSLRLSCAASGRTLYYYAMGWYRQAPGKERELVAAISGGGRTYYADSVKGRFTISRDNAKKTVDLQMNSLKPEDTAVYYCAARYRKSGLDNYWGQGTQVTVSS”, the “polyreactivity (PSR sort gate)” value was “high polyreactivity”.

As for “QGQLVESGGGLVQAGGSLRLSCAASGRTYDYNAMGWYRQAPWKEWELVAAISSGGSITHYADSVKGRFTISRDNAKNTVYFQMYSLKPEDTAVYYCNAAHLAHRFIGYTRWNYYYWGQGTQVTVTS”, the “polyreactivity (PSR sort gate)” value is given as “high polyreactivity”.

For the sequence “QGQLVESGGGLVQAGGSLRLSCAASGSIFGNAMGWYIQAPGKEREFVAAISSSGSSTYYADSVKGRFTISRDNAKNTVYLQMNSLKPEDTAVYYCAARPPRVSYEYWGQGTQVTVSS”, the “polyreactivity (PSR sort gate)” value was “high polyreactivity”.

Regarding “QGQLVESGGGLVQAGGSLRLSCAASGSIFYYNDMGWYRQAPGKEWELVATITNGGGTNYADSVKGRFTISRDNAKYTVYLQMNSLKPEDTAVYYCAADLWPTVTASGDLIVKFDYWGQGTQVTVSS”, the “polyreactivity (PSR sort gate)” value was “low polyreactivity”.

On to “QGQLVESGGGLVQAGGSLRLSCAASGSISLYAMGWYRQAPGKERELVAAITKSGGSTYYADSVKGRFTISRDNAKNTVYLQMHSLKPEDTAVYYCNRGGGERKYNYWGQGTQVTVSS”, for which the “polyreactivity (PSR sort gate)” value is on record as “high polyreactivity”.

Consider “QGQLVESGGGLVQAGGSLRLSCAASGSTFDNYAMGWYRQAPGKERELVAAISSSSSRTYYADSVKGRFTISRDNAKNTVYLQMNSLKPADTAVYYCAKRRSIGYYYWGQGTQVTVSS”, for which the “polyreactivity (PSR sort gate)” value is “high polyreactivity”.

As to “QGQLVESGGGLVQAGGSLRLSCAASGSTFTIYVMGWYRQAPGKERELVAGISWSGGSTYYTDSVKGRFTISRDNAKNTVYLQMNSLKPEDTAVYYCNADAQWSVWSYIIDYDYWGQGTQVTVPS”, the “polyreactivity (PSR sort gate)” value is on record as “low polyreactivity”.

Turning to “QGQLVESGGGLVQAGGSLRLSCAASGSTFYIYAMGWYRQAPGKERELVARISGSGGSTYYADSVKGRFTISRDNAKNTVYLQMNSLKPEDTAVYYCAADDIYKYYQYYAFPYYRYDYWGQGTQVTVSS”, the “polyreactivity (PSR sort gate)” value was “low polyreactivity”.

Consider “QGQLVESGGGLVQAGGSLRLSSAASGRTFPSYAMGWYRQAPGKERELVAAITVSGGNTYYADSVKGRFTISRDNAKNTVYLQMNSLKAEDTAVYYCNTASYVSWYVHYYYWGLGTQVTVSS”, for which the “polyreactivity (PSR sort gate)” value is “low polyreactivity”.

As for “QGQLVESGGGLVQAGGSLRLSSAASGSIFFQNVMGWYRQAPGKERELVAAFSSSGDSTYYADSVKGRFTISRDNAKNTVYLQMISLKPEDTAVYYCAAEPEYVSGPYDYWGQGTQVTVSS”, the “polyreactivity (PSR sort gate)” value is “low polyreactivity”.

For the sequence “QGQLVESGGGLVQAGGSLRLTCAASGLTFRRYTMGSYRQAPGNERELVAPISGSGGSTYYADSVKGRFTISRDSAKNTVYFQMNSLKPEDTAVSYCNAPYLHYVIVFTDYSQRYDYWGQGTQVTVSS”, the “polyreactivity (PSR sort gate)” value is listed as “high polyreactivity”.

Regarding “QGQLVESGGGLVQEGGSLRLSCAASGRIFQNYAMGWYRQAPGKERELVATIDIGGSTKYADSVKGRFTISRDNAKNTVYLQMNSLKPEDTAVYYCNVPAFFYGYYRFDYWGQGTQVTVSS”, the “polyreactivity (PSR sort gate)” value is listed as “high polyreactivity”.

Turning to “QGQLVESRGGLVQAGGSLRLSCAASGFNLAYYAMGWYRQAPGKERELVAAISIGSSTDYADSVKGRFTISRDNAKNTVYLQMNSLKPEDTAVFYCAKRGPQVWTFDYDSWGQGTQVTVSS”, the “polyreactivity (PSR sort gate)” value is listed as “low polyreactivity”.

Turning to “QGQLVESWGGLVQAGGSLRLSCAATRRTFLYYVMGWYRQAPGKETELVAAITNRGGSTYYADSVKGRFTISRDNAKNNVYVLMKSLKQEDTAVYYSNAPYGVYWSSTYYFWGQGTQVTVSS”, the “polyreactivity (PSR sort gate)” value is given as “high polyreactivity”.

As to “QGQLVQSGVGLVQAGGILRLSCASSGITFASYAMGWYRPAPGKEMELVATITTGGTNTYYADSVKARFTISRDNAKNTVYLQMNSLKPEDTAVYSSAADSTQYVLSGNYDYWGQGTQVTVSS”, the “polyreactivity (PSR sort gate)” value was “low polyreactivity”.

With “QGQLVVSGGGLVQAGGSLRLSCAASGRISSSYAMGWYRQAPGKEREFVAAIRSSGGSTYYADSVKGRFTISRDYAKNTVYLQMISLKPVDTAVYYCNKVGFYQSRKYYYWGQATQVTVSS”, the “polyreactivity (PSR sort gate)” value was “high polyreactivity”.

In the case of “QHQIVESGGGLVQAGGSLRLSCAASGSTIYRYAMGWYRQAPGKERELVAAISSSGGSTYYADSVKGRFTISRDNAKNTVYLQMNSLKPEDTAVYYCNAADRVRRFDYWGQGTQVTVSS”, the “polyreactivity (PSR sort gate)” value is “low polyreactivity”.

“QIHLVESGGGLVQAGGSLRLSCAASGGIFYINAMGWYRQAPGKEREFVAAITESSDITYYADSVKGRFTISRDNAKNTVYLQMNSLKPEDSAVYYCAAEFVRSGDDYWGQGTQVTVSS”: the “polyreactivity (PSR sort gate)” value is given as “low polyreactivity”.

“QIQLEESGGGLVQAGGSLRLSCAASGSIFDYNTMGWYSQAPGKERELVAAISSSGGSTYYADSVKGRFTISRDNAKNSVYLQMNSLKPEDTAVYYCAAVNGYQYPPYYFNGYDYWGQGTQVTVSS”: the “polyreactivity (PSR sort gate)” value is on record as “low polyreactivity”.

Take “QIQLVESGGGLVQAGGSLRLSCAASGRIFFRNAMGWYRQAPGKERELVAGITWSGGSTYYADSVKGRFTISRDNAKNTVYLQMNSLKPEDTAVYYCNAVWRYRVLCDYWGQGTQVTVSS”: the “polyreactivity (PSR sort gate)” value is on record as “high polyreactivity”.

Take “QIQLVESGGGLVQAGGSLRLSCAASGRTFYSYAMGWYRQAPGKERELVAAINRGASTYYADSVKGRFTISRDNAKNTVYFQMNSLKPEDTAVYYCNAQYYYIPSSTDYDYWGQGTQVTVSS”: the “polyreactivity (PSR sort gate)” value is “high polyreactivity”.

For the sequence “QIQLVESGGGLVQAGGSLRLSCAASGSTLPDYAMGWYRQAPGKERELVADITARGGTYYADSVKGRFTISRDNAKNTVYLQMNSLKPEDTAVYYCAARISGRWYEYWGQGTQVTVSS”, the “polyreactivity (PSR sort gate)” value was “high polyreactivity”.

On to “QLLLQESVGGLVQAGGSLRLSCAASGSIFLFYTMGAYRQAPVKELEFVAGITLGTTTYNADSVKGRFTISRDNVKNTVYLQMNSLKPEDTAVYYCAVAVGHYTEFWYWGQGTQVTMSS”, for which the “polyreactivity (PSR sort gate)” value is “high polyreactivity”.

On to “QLQHVESGGGLVQAGGSLRLSCADSGRTFQYYAMGSYRQPPGKESELVAAINTSGGRTSYADSVKGRFTISRDNAKNTVYLQMNILKPEDTAVYYCAAKPFSYVYSSYYYWGQGTQVTVSS”, for which the “polyreactivity (PSR sort gate)” value is given as “high polyreactivity”.

As to “QLQHVESWGGLVQAGGSLRLSCAASGRTFRANDKRSYRQAPGKQSELVAAISQSGGSRYYADSVKGRFTISRDNAKNTVYLQLNSLKPEDTAVYYCNALGRISNHTLYDYWGQGTQVTVSS”, the “polyreactivity (PSR sort gate)” value was “low polyreactivity”.

As to “QLQLEESAGGLVQAGGSLRLSCAASGSIFGPYAMGSYSQAPGKERELVAAITWSGDSTYYADSVKGRFTISRDNAKNTVYLQMNSLKPEDTAVSYCNADWGQGTQVTVSS”, the “polyreactivity (PSR sort gate)” value is given as “low polyreactivity”.

As to “QLQLEESGGGLVQAGGSLSLRCAASGRIFSRYPMGWYRQAPGKERELVAAISSRAGSTYYADSVKGRFTISRDNAKNTVYLQMNSLKPEDTAVYYCNNPSYSCSSPYDHWGQGTQVTVSS”, the “polyreactivity (PSR sort gate)” value is given as “high polyreactivity”.
